Results as given in IntAct's records for PubMed 16498409.

B1: ADP-ribosylation factor 1 (Saccharomyces cerevisiae), P11076 (parent)
chain: MGLFASKLFSNLFGNKEMRILMVGLDGAGKTTVLYKLKLGEVITTIPTIGFNVETVQYKNISFTVWDVGGQDRIRSLWRHYYRNTEGVIFVVDSNDRSRIGEAREVMQRMLNEDELRNAAWLVFANKQDLPEAMSAAEITEKLGLHSIRNRPWFIQATCATSGEGLYEGLEWLSNSLKNST
B2: ADP-ribosylation factor 1 (Saccharomyces cerevisiae), P11076 (parent)
chain: B1 chain
partner: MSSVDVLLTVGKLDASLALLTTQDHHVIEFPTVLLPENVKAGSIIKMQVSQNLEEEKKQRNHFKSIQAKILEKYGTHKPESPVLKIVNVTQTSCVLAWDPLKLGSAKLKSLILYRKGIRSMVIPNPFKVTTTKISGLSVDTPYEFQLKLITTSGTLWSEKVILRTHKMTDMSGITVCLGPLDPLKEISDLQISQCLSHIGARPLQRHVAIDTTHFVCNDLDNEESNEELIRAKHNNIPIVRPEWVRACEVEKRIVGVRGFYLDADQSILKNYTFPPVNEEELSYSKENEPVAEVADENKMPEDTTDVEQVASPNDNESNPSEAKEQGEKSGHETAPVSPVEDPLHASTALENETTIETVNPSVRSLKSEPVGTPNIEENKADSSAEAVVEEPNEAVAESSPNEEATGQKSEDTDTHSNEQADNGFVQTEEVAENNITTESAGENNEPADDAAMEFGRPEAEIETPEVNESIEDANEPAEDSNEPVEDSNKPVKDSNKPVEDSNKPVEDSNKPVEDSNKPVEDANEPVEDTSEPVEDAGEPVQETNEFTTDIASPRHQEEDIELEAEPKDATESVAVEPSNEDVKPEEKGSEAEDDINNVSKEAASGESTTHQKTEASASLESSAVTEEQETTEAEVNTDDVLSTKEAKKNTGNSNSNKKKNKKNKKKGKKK

Variants of: B1
Conditions: with glo3_yeast GLO3, P38682
Chain of glo3_yeast GLO3, P38682 (P38682 whole entry): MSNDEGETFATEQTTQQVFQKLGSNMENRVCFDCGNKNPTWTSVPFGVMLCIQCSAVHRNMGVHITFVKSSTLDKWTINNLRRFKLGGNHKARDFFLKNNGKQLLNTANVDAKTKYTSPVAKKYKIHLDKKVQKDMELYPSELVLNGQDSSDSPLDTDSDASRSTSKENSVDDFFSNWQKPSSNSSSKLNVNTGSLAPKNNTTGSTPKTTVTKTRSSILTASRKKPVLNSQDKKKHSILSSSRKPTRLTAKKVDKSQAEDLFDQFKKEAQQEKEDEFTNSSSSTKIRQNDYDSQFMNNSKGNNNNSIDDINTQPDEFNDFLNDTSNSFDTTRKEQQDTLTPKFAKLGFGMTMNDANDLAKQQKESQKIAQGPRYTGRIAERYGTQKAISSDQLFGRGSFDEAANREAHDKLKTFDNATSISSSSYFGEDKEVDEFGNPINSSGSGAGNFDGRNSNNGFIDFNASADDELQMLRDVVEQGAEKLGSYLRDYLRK

effect of a mutation on the interaction | Variant
increasing interaction | MGLFASKLFSNLFGNKEMRILMVGLDGAGKTTVLYKLKLGEVITTIPTIGFNVETVQYKNISFTVWDVGGLDRIRSLWRHYYRNTEGVIFVVDSNDRSRIGEAREVMQRMLNEDELRNAAWLVFANKQDLPEAMSAAEITEKLGLHSIRNRPWFIQATCATSGEGLYEGLEWLSNSLKNST [Q71L]

Variants of: B2
Conditions: with chs5_yeast CHS5, Q12114

effect of a mutation on the interaction | Variant
increasing interaction | MGLFASKLFSNLFGNKEMRILMVGLDGAGKTTVLYKLKLGEVITTIPTIGFNVETVQYKNISFTVWDVGGLDRIRSLWRHYYRNTEGVIFVVDSNDRSRIGEAREVMQRMLNEDELRNAAWLVFANKQDLPEAMSAAEITEKLGLHSIRNRPWFIQATCATSGEGLYEGLEWLSNSLKNST [Q71L]
